Data published in article PMC4213023, “Structural Basis of Substrate Selectivity of E. coli Prolidase” (PLoS ONE, 2014).
Changes are numbered by the printed parent chain. Numbers in names are those of the source.

B1: Escherichia coli prolidase PepQ, wild type (enzyme, UniProt P21165 1-443, looked up)
chain: MESLASLYKNHIATLQERTRDALARFKLDALLIHSGELFNVFLDDHPYPFKVNPQFKAWVPVTQVPNCWLLVDGVNKPKLWFYLPVDYWHNVEPLPTSFWTEDVEVIALPKADGIGSLLPAARGNIGYIGPVPERALQLGIEASNINPKGVIDYLHYYRSFKTEYELACMREAQKMAVNGHRAAEEAFRSGMSEFDINIAYLTATGHRDTDVPYSNIVALNEHAAVLHYTKLDHQAPEEMRSFLLDAGAEYNGYAADLTRTWSAKSDNDYAQLVKDVNDEQLALIATMKAGVSYVDYHIQFHQRIAKLLRKHQIITDMSEEAMVENDLTGPFMPHGIGHPLGLQVHDVAGFMQDDSGTHLAAPAKYPYLRCTRILQPGMVLTIEPGIYFIESLLAPWREGQFSKHFNWQKIEALKPFGGIRIEDNVVIHENNVENMTRDLKLA
notes: E. coli PepQ (prolidase), gene PCR amplified from chromosomal E. coli DNA; Cloned NdeI/XhoI into pET21a; Two Mg(II) ions per active site in the crystal; also called E. coli PepQ; WT; source: E. coli BL21[DE3], pET21a, purified (fast-flow Q anion exchange, phenyl-sepharose, ammonium sulfate precipitation)
B2: Escherichia coli prolidase PepQ R370E (enzyme, UniProt P21165 1-443, looked up)
chain: B1 chain with R370E
notes: E. coli PepQ (prolidase) with R370E, made by site-directed mutagenesis of the wild-type construct (domains of the parent printed as 1-159 and 160-443); Same construct as m1 apart from R370E; PDB 4QR8 is the wild-type parent; also called R370E PepQ; charge-reversed mutant of PepQ; source: E. coli BL21[DE3], pET21a, purified following the protocols used for the wild-type enzyme

How the values were obtained:
[1] = system: C[C@H](N)C(=O)N1CCC[C@H]1C(N)=O; test: purified protein; assay type: biochemical, Escherichia coli; conditions: 50 mM Tris pH 8, 20 mM Mg(OAc)2, 25°C, 1 µM AlaDH and 2 mM NAD+ (coupling)
[2] = target: Escherichia coli prolidase PepQ, wild type (Escherichia coli) (UniProt P21165)
[3] = target: Escherichia coli prolidase PepQ R370E (Escherichia coli) (UniProt P21165)
[4] = system: C[C@H](N)C(=O)N1CCC[C@H]1C(=O)O; test: purified protein; assay type: biochemical, Escherichia coli; conditions: 50 mM Tris pH 8, 20 mM Mg(OAc)2, 25°C, 1 µM AlaDH and 2 mM NAD+ (coupling)
[5] = target: the molecule itself; test: crystal structure; PepQ 12 mg/ml in 50 mM Tris pH 7.4, 5 mM MgCl2, 5 mM DTT; hanging drop at 4°C, 20% PEG MME 5000, 0.1 M Bis-Tris pH 6.5; one dimer in the asymmetric unit
[6] = target: the molecule itself; test: SEC; analytical gel filtration, Superose 6, PepQ 10 nM in 50 mM Tris pH 7.4, 50 mM KOAc, 10 mM Mg(OAc)2, 2 mM DTT, 0.4 mL/min, tryptophan fluorescence detection

Molecule	Km [1] [mM]	kcat [1] [s⁻¹]	kcat/Km [1] [M⁻¹ s⁻¹]	Km (mM) of hydrolysis of the dipeptide, coupled to AlaDH/NAD+ oxidation of alanine, 25°C [2] [mM]	Km (mM) of hydrolysis of the dipeptide, coupled to AlaDH/NAD+ oxidation of alanine, 25°C [3] [mM]	other results
E. coli PepQ (Escherichia coli K-12; R370E)	4.7 ± 0.2	1.1 ± 0.4	230	–	–	–
AlaPro-CONH2 substrate dipeptide	–	–	–	6.6	4.7	–
E. coli PepQ (Escherichia coli K-12)	6.6 ± 0.5	80.7 ± 19.7	12000	–	–	Km [4]: 1.2 ± 0.1 mM; kcat [4]: 139 ± 2.5 s⁻¹; kcat/Km [4]: 120000 M⁻¹ s⁻¹
AlaPro-COOH substrate dipeptide	–	–	–	1.2	127	–
B1	–	–	–	–	–	stoichiometry N [5]: 2
B2	–	–	–	–	–	binding result [6]: binds
